# According to the nanobody polyreactivity screen of Harvey et al. (2022):
# Experiment: yeast display, Sf9 membrane polyspecificity reagent, FACS + sequencing; frameworks hold sequencing errors
# How it was run: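 Nanobodies from a synthetic yeast display library (Saccharomyces cerevisiae BJ5465), induced 36–48 hours with galactose, were stained 1 hour at 4 °C with 10% biotinylated, detergent-solubilized Sf9 membrane reagent, enriched on streptavidin microbeads, then FACS-sorted. Anti-HA (expression) and streptavidin (reagent binding) fluorescence set low and high (top ~1%) gates. Polyreactivity labels come from the gate of origin. Genes were colony-PCR amplified, MiSeq 2 × 250 sequenced and filtered by CDR length.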
row,Sequence,polyreactivity (PSR sort gate)
1,QVQLVESGGGLVQAGGSLRLSCAASGITFLDNAMGWYRQAPGKERELVAAITSDGNTYYADSVKGRFTISRDNAKNTVYLQMNSLKPEDTAVYYCAARGFLKYVTEFDYWGQGTQVTVSS,low polyreactivity
2,QVQLVESGGGLVQAGGSLRLSCAASGITFLEYAMGWYRQAPGKERELVATINSGGSTNYADSVKGRFTISRDNAKNTVYLQMNSLKPVDTAVYYCAADYGSDYTKGDYWGQGTQVTVSS,low polyreactivity
3,QVQLVESGGGLVQAGGSLRLSCAASGITFLFYVMGRYRQERGKERELVSTINSDDTTYYADSVKGRFTISRDNAKNTVYLQMNCLKPEDTAVYYCAADTWLWYGFDHWGQGTQVTVSS,high polyreactivity
4,QVQLVESGGGLVQAGGSLRLSCAASGITFLKNAMGWYRQAPGKERELVAAISSSGGSTYYADSVKGRFTISRDNAKNTVYLQMNSLKPEDTAVYYCAAYPTSTVVDDFDYWGQGTQVTVSS,high polyreactivity
5,QVQLVESGGGLVQAGGSLRLSCAASGITFLKNAMGWYRQAPGKESELVAAISSSGGSTYYADSVKGRFTISRDNAKNTVYLQMNSLKPEDTAVYYCAARIYWYTPGRRGYTYDYWGQGTQVTVSS,high polyreactivity
6,QVQLVESGGGLVQAGGSLRLSCAASGITFLNYAMGWYRQAPGKERELVAAIDTRGGRTNYADSVKGRFTISRDNAKNNVYLQMNSLKPEDTAVYYCAADPFYWYRSVRGEYWGQGSQVTVSS,low polyreactivity
7,QVQLVESGGGLVQAGGSLRLSCAASGITFLNYAMGWYRQAPGKERELVAAIDTRGGRTNYADSVKGRFTISRDNAKNTVYLQMNSLKPEDTAVYYCNALGYYVHKMDYWGQGTQVTVSS,low polyreactivity
8,QVQLVESGGGLVQAGGSLRLSCAASGITFLNYAMGWYRQATGKERELVAANDTRGGRTNYADSVKGRFTISRDNAKNTVYLQMNSVKPEDTEVYYCYALGYYVHKMDYWGQGTQVTVSS,low polyreactivity
9,QVQLVESGGGLVQAGGSLRLSCAASGITFLPYAMGWYRQAPGKERELVAAITRGGGSTYADSVKGRFTISRDNAKYTVYLQMKSLKPEDTAVYYCAKRLGRVSWYEDYDYWGQGTEVTVSS,low polyreactivity
10,QVQLVESGGGLVQAGGSLRLSCAASGITFLPYARGWYRQAPGKERELVAAITRGGGSTYADSVKGRFTISRDNAKNTVYLQMNSLKPEDTAVYYCAKRYGRVSWYEDYDYWGQGTQVTVSS,low polyreactivity
11,QVQLVESGGGLVQAGGSLRLSCAASGITFLRNTMGWYRQAPGKERELVAAISRCGSTYYADSVKGRFTISRDNAKNTVYLQMNSLKPEDTAVYYCNAPSYVQATDYDYWGQGTQVTVSS,high polyreactivity
12,QVQLVESGGGLVQAGGSLRLSCAASGITFLRYAMGWYRKSPGKERELVARISSGGRTDYADSVKGRFTISRDNAKNTVYLQMNSLKPEDSAVYYCNATVYEWHTEYDYWGQGTQVTVSS,high polyreactivity
13,QVQLVESGGGLVQAGGSLRLSCAASGITFLSNAMGWYRQAPGKERELDAAISRGGGTTYYADSVKGRFTISRDIAKNTVYLLMNCLKPEDTAGSYCGTESTHTRRYWYEYWGLGTQVTVSS,high polyreactivity
14,QVQLVESGGGLVQAGGSLRLSCAASGITFLVYAMGWYRQAPGKERELVAAISADAGGTYYADSVKGRFTISRDNAKNTVYLQMNSLKPEDTAVYYCNVDGRSDGDDYWGQGTQVTVSS,low polyreactivity
15,QVQLVESGGGLVQAGGSLRLSCAASGITFLYYAMGWYRQAPGTERELVAAITSSGGRTYYADSVKGRFTISRDNAKNTVCLQMNSLKPEDTAVYYCAADSRTYNGGYYWGQGTQVTVSS,high polyreactivity
16,QVQLVESGGGLVQAGGSLRLSCAASGITFNFYAMGWYRQAPGKERELVAAITQSGGSTYYADSVKGRFTISRDNAKNTVYLQMNSLKPEDTAVYYCAAARTGHMYYWGQGTQVTVSS,high polyreactivity
17,QVQLVESGGGLVQAGGSLRLSCAASGITFNGYVMGWYRQAPGKERELVAAITSGARTYYADSVKGRFTISRDNAKNTVYLQMNSLKPEDTAVYYCAASIWLYRYYYWGQVTQVTVSS,high polyreactivity
18,QVQLVESGGGLVQAGGSLRLSCAASGITFNLYAMGWYRQAPGKEREFVAVITASGSSTYYADSVKGRFTISRDNAKNTVYLQMNSLKPEDTAVYYCAARWHIYYFSYVTSYAYGYWGQGTQVTVSS,high polyreactivity
19,QVQLVESGGGLVQAGGSLRLSCAASGITFNRYVMGWYRQAPGKERELVAANSRTGGSTYYADSVKGRFTISRDTGKNTVYLQMNILKPEDTAVYYCAAATSPGIYDYWGQGTQVTVSS,high polyreactivity
20,QVQLVESGGGLVQAGGSLRLSCAASGITFNWYAMGWYRQAPGKERELVAAISGSGGRTYYADSVKGRFTISRDYPKNTVYLQMTSLKPEDTAVYYCNKVPYYAGQNYVYWGQGTQVTVSS,high polyreactivity
21,QVQLVESGGGLVQAGGSLRLSCAASGITFNYAMGWYRQAPGKERELVAAISRRGGSTYYADSVKGRFTISRDNAKNTVYLQMNSLKPEDTAVYYCNTTVWGSYYYWGQGTQVTVSS,high polyreactivity
22,QVQLVESGGGLVQAGGSLRLSCAASGITFPENDMGWYIKAPGKEREFDADITSSGGNTYYADSVKGRFTISRDNAKNTVYLHMNSLKPEDSAVYYCNADDGYFYVYQGWYDEMDYWGQGTQVTVSS,high polyreactivity

row,Sequence,polyreactivity (PSR sort gate)
1,QVQLVESGGGLVQAGGSLRLSCAASGITFPGYAMGWYRQAPGKERELVAAISDSGSSTYYADSVKGRFTISRDNAKNTVYLQMNSLKPEDTAVYYCAAVSGFYDQYDYWGQGTQVTVSS,low polyreactivity
2,QVQLVESGGGLVQAGGSLRLSCAASGITFPGYAMGWYRQAPGKERELVAAISTSGGSTYYADSVKGRFTISRDNAKNTVYLQMNSLTPDDTAVYYCNARLVYYSYEEMDYWGQGTQVTVSS,low polyreactivity
3,QVQLVESGGGLVQAGGSLRLSCAASGITFPINAMGWYRQAPGKEREFVATISFSGASTYYADSVKGRFTISRDNAKNTVYLQMNSLKPEDTAVYYCAADLSLSTGGRAFPTYGYWGQGTQVTVSS,high polyreactivity
4,QVQLVESGGGLVQAGGSLRLSCAASGITFPLYAMGWYRKAPGKERELVATISGRGGSTYYADYVKGRFTISRDNAKNTVYLQMNSLIPEDTAVYYCNADFRSPYFLLSWYHSGDYWGLGTQVTVSS,low polyreactivity
5,QVQLVESGGGLVQAGGSLRLSCAASGITFPRYAMGWYRLAPGKERELVATITRSGGGTYYADSVKGRFTISRDNAKNTVYLQMKSLKPEDTAVYYCAAGALQRGVYGYGYWGQGTEVTVSS,high polyreactivity
6,QVQLVESGGGLVQAGGSLRLSCAASGITFPYYAKGWYRQAPGKERELVAGISRSGGRTYYADSVKGRFTISRDNAKNTVYLQMNSLKPEDTAVYYCNARKNLLSVTFDYWGQGTQVTVSS,high polyreactivity
7,QVQLVESGGGLVQAGGSLRLSCAASGITFPYYALGWYRQAPGKERELVARISRGGRTNYADSVKGRFTISRDNAKNTVYLQMNSLKPEDTAVYYCNAGYTYYKYGYWGQGTQVTVSS,high polyreactivity
8,QVQLVESGGGLVQAGGSLRLSCAASGITFPYYAMGWSRQAPGKERELVAAISSSGGSSYYADSVKGRFTISRDNAKNTVYLQMNSLKPEDTAVYYCATRNTRFHLDYWGQGTQVTVSS,high polyreactivity
9,QVQLVESGGGLVQAGGSLRLSCAASGITFPYYAMGWYRQAPGKERELVAAISSSGGSTYYADSVKGRFTISRDNAKNTVYLQMNSLKPEDTAVYYCAAQRYINYDYWGQGTQVTVSS,high polyreactivity
10,QVQLVESGGGLVQAGGSLRLSCAASGITFPYYAMGWYRQAPGKERELVAAITRSGSSTYYADSVKGRFTISRDNAKNTVYLQMNSLKPEDTAVYYCAAKRGAGEDYWGQGTQVTVSS,high polyreactivity
11,QVQLVESGGGLVQAGGSLRLSCAASGITFPYYTMGWYRQAPGKERELVATIRNGGSTYYADSVKGRFTISRDNAKNTVYLQMNSMKPEDTAVYYCAAVPLWDYKFFYYLLYDYWGQGTQVTVSS,low polyreactivity
12,QVQLVESGGGLVQAGGSLRLSCAASGITFQANAMGWYRQAPGKERELVAAISSSDGSTYYADSVKGRFTISRDNAKNTVYVQMNSLKPEDTAVYYCAADGVVYGWPEYEYWGQGTQVTVSS,low polyreactivity
13,QVQLVESGGGLVQAGGSLRLSCAASGITFQDNAIGSNRQAPGKERELVAAISTGSTNYADSVKGRFTISRDNAKNTVYLQMKSLKPDDTAVYYCAALGQYQTVYSDGYDYYYWGQGTQVTVSS,low polyreactivity
14,QVQLVESGGGLVQAGGSLRLSCAASGITFQDYAMGWYRQAPGKERELVAAISKSGGSTYYADSVKGRFTISRDNAKNTVYLQMNSLKPEDTAVYYCAAYAQKRYYWGQGTQVTVSS,high polyreactivity
15,QVQLVESGGGLVQAGGSLRLSCAASGITFQNYAMGWYRQAPGKERELVAAITRSGGRTYYADSVKGRFTISRDNAMNTVYLQMNSLKPEDTAVYYCAVYGIGRPYWYDYWGQGTQVTVSS,high polyreactivity
16,QVQLVESGGGLVQAGGSLRLSCAASGITFQNYAMGWYRQAPGKERELVAGISYSGGSTYYADSVKGRFTISRDHAKNTVFLLMNSLKPEDTAVYDCAATRWYSYRRYYYWGQGTQVTVSS,high polyreactivity
17,QVQLVESGGGLVQAGGSLRLSCAASGITFQPYAMGWYRQAPGKEREFVAVISFRGGSTYYADSVKGRFTISRDNAKNTVYLQMNSLKPEDTAVYYCAALEYHGHTGGRVYYWVQGTQVTVSS,high polyreactivity
18,QVQLVESGGGLVQAGGSLRLSCAASGITFQRYAMGWYRQAPGKERELVAAISTNGGTTYYADSVKGRFTISRDNAKNTVYLQMNSLKPEDTAVYYCNAESGYVYYIRYNYWGQGTQVTVSS,high polyreactivity
19,QVQLVESGGGLVQAGGSLRLSCAASGITFRFYAMGWYRQAPGKERELVAAITSSGGSTYYADSVKGRFTISRDNAKNTVYLQMNSLKPEDTAVYYCAASYGAPYGYKRYYYWGQGTQVTVSS,high polyreactivity
20,QVQLVESGGGLVQAGGSLRLSCAASGITFRGNVMGWYRQAPGKERELVAAISGSSGRTYYADSVKGRFTISRDNAKNTVYLQMNSLKPEDTAVYYCAAYYGTKYDYWGQGTQVTVSS,high polyreactivity
21,QVQLVESGGGLVQAGGSLRLSCAASGITFRGYAMGWYRQAPGKERELVAAITWSGGSTYYADSVKGRFTISRDIAKNTVYLQMKSLKPEDTAVYYCAARGRRSFEYWGQGTHVTVSS,high polyreactivity
